Test results as given in patent US7011817B2, “Hydrophilic cyanine dyes” (Mallinckrodt Inc., priority 2000, dated 2006).

Assays:
[1] = Monitoring of the blood clearance profile of peptide-dye conjugates; type: in vivo, Sprague-Dawley or Fischer 344 rats; conditions: rat ear; monitored at 830 nm after excitation at 780 nm
Excerpt: A laser of appropriate wavelength for excitation of the dye chromophore was directed into one end of a fiber optic bundle and the other end was positioned a few millimeters from the ear of a rat. A second fiber optic bundle was also positioned near the same ear to detect the emitted fluorescent light and the other end was directed into the optics and electronics for data collection. An interference filter (IF) in the collection optics train was used to select emitted fluorescent light of the appropriate wavelength for the dye chromophore.
Sprague-Dawley or Fischer 344 rats were used in these studies. The animals were anesthetized with urethane administered via intraperitoneal injection at a dose of 1.35 g/kg body weight. After the animals had achieved the desired plane of anesthesia, a 21 gauge butterfly with 12″ tubing was placed in the lateral tail vein of each animal and flushed with heparinized saline. The animals were placed on a heating pad and kept warm throughout the entire study. The lobe of the left ear was affixed to a glass microscope slide to reduce movement and vibration.
Incident laser light delivered from the fiber optic was centered on the affixed ear. Data acquisition was then initiated, and a background reading of fluorescence was obtained prior to administration of the test agent. For Cytates 1 or 2, the peptide-dye conjugate was administered to the animal through a bolus injection, typically 0.5 to 2.0 mL, in the lateral tail vein. This procedure was repeated with several dye-peptide conjugates in normal and tumor-bearing rats. Representative profiles as a method to monitor blood clearance of the peptide-dye conjugate in normal and tumor-bearing animals are shown in FIGS. 12 to 16. The data were analyzed using a standard sigma plot software program for a one-compartment model.

[2] = Imaging of individual organs removed from CA20948 tumor-bearing rat; type: in vivo; conditions: about 24 hours post administration
Description: Individual organs were removed at about 24 hours post Cytate 1 administration and imaged.

[3] = tested on: Prostatic Carcinoma (R3327-H); assay: In vivo fluorescence imaging of prostatic carcinoma R3327-H in rats; parameters: species or system male Copenhagen rats
Excerpt: (§1) A non-invasive in vivo fluorescence imaging apparatus was employed to assess the efficacy of contrast agents developed for tumor detection in animal models. A LaserMax Inc. laser diode of nominal wavelength 780 nm and nominal power of 40 mW was used. The detector was a Princeton Instruments model RTE/CCD-1317-K/2 CCD camera with a Rodenstock 10 mm F2 lens (stock #542.032.002.20) attached. An 830 nm interference […] (CVI Laser Corp., part # F10-830-4-2) was mounted in front of the CCD input lens such that only emitted fluorescent light from the contrast agent was imaged. Typically, an image of the animal was taken pre-injection of contrast agent. This image was subsequently subtracted (pixel by pixel) from the post injection images. However, the background subtraction was […] done once the animal had been removed from the sample area and returned at a later time for images taken several hours post injection.
The imaging apparatus and the procedure used are described as in Example 12. Prostate tumors (Dunning R3327-H) were induced in young male Copenhagen rats in the left flank area from a solid implant. These tumors grow very slowly and palpable masses were present 4-5 months post implant. FIGS. 7C-D are images of a rat with an induced prostatic carcinoma tumor (R3327-H) imaged at two minutes (FIG. 7C) and 30 minutes (FIG. 7D) post injection.

[4] = tested on: Pancreatic Ductal Adenocarcinoma (DSL 6A); assay: In vivo fluorescence imaging of DSL 6A tumors in rats; parameters: species or system male Lewis rats
Excerpt: as §1
DSL 6A tumors were induced in male Lewis rats in the left flank area by the introduction of material from a solid (donor) implant, and the tumors were palpable in approximately 14 days. The animals were anesthetized with xylazine:ketamine:acepromazine, 1.5:1.5:0.5 at 0.8 mL/kg via intramuscular injection. The area of the tumor (left flank) was shaved to expose the tumor and the surrounding surface area. […]

[5] = tested on: Rat pancreatic acinar carcinoma expressing the SST-2 receptor (CA20948); assay: In vivo fluorescence imaging of pancreatic acinar carcinoma CA20948 in rats
Excerpt: as §1
The imaging apparatus and the procedure used are described in Example 12. Rat pancreatic acinar carcinoma expressing the SST-2 receptor (CA20948) was induced by solid implant technique in the left flank area, and palpable masses were detected nine days post implant. The images obtained at 2 and 30 minutes post injection are shown in FIGS. 7E-F. FIGS. 7E-F are images of a rat with an induced pancreatic acinar carcinoma (CA20948) expressing the SST-2 receptor imaged at two minutes (FIG. 7E) and 30 minutes (FIG. 7F) post injection.
The imaging apparatus and the procedure used are described in Example 12, except that each animal received 500 μl of a 1.0 mg/mL solution of Cytate 1 solution of 25% dimethylsulfoxide in water.
Rat pancreatic acinar carcinoma expressing the SST-2 receptor (CA20948) were induced by solid implant technique in the left flank area, and palpable masses were detected 24 days post implant. Images were obtained at various times post injection.
Cytate 1 was evaluated in the CA20948 Lewis rat model. […] At 27 hours post injection, the animal was again imaged (FIG. 9B).

Compound: C[C@@H](O)[C@H](NC(=O)[C@@H]1CSSC[C@H](NC(=O)[C@@H](Cc2ccccc2)NC(=O)CCN2C(=CC=CC=CC=CC3=[N+](CCC(=O)N[C@H](Cc4ccccc4)C(=O)N[C@H]4CSSC[C@@H](C(=O)N[C@H](C(=O)O)[C@@H](C)O)NC(=O)[C@H]([C@@H](C)O)NC(=O)[C@H](CCCCN)NC(=O)[C@@H](Cc5c[nH]c6ccccc56)NC(=O)[C@H](Cc5ccc(O)cc5)NC4=O)c4ccc5ccccc5c4C3(C)C)C(C)(C)c3c2ccc2ccccc32)C(=O)N[C@@H](Cc2ccc(O)cc2)C(=O)N[C@H](Cc2c[nH]c3ccccc23)C(=O)N[C@@H](CCCCN)C(=O)N[C@@H]([C@@H](C)O)C(=O)N1)C(=O)O [Cytate 2, bisOctreotate-Bisethylcarboxymethylindocyanine dye]
- blood fluorescence signal after bolus injection (rise) [1]: rapidly increased to a peak value
- blood fluorescence signal after the peak (clearance) [1]: decayed as a function of time

Compound: C[C@@H](O)[C@H](NC(=O)[C@@H]1CSSC[C@H](NC(=O)[C@@H](Cc2ccccc2)NC(=O)CC[N+]2=C(/C=C/C=C/C=C/C=C3/N(CCC(=O)O)c4ccc5ccccc5c4C3(C)C)C(C)(C)c3c2ccc2ccccc32)C(=O)N[C@@H](Cc2ccc(O)cc2)C(=O)N[C@H](Cc2c[nH]c3ccccc23)C(=O)N[C@@H](CCCCN)C(=O)N[C@@H]([C@@H](C)O)C(=O)N1)C(=O)O [Cytate 1, monoOctreotate-Bisethylcarboxymethylindocyanine dye]
- blood fluorescence signal after bolus injection (rise) [1]: rapidly increased to a peak value
- blood fluorescence signal after the peak (clearance) [1]: decayed as a function of time
- organ uptake: adrenals [2]: high uptake
- organ uptake: heart [2]: significantly lower uptake
- organ uptake: liver [2]: significantly lower uptake
- organ uptake: muscle [2]: significantly lower uptake
- organ uptake: pancreas [2]: high uptake
- organ uptake: spleen [2]: significantly lower uptake
- organ uptake: tumor tissue [2]: high uptake

Compound: CC1(C)C(/C=C/C=C/C=C/C=C2\N(CCCCS(=O)(=O)O)c3ccc4ccccc4c3C2(C)C)=[N+](CCCCS(=O)(=O)[O-])c2ccc3ccccc3c21 [ICG, indocyanine green]
- dye intensity in the tumor ([3]; 30 minutes post-ICG injection, R3327-H tumor): considerably diminished
- perfusion of the agent into the tumor ([3]; Dunning R3327H (prostate) tumor line): slow perfusion of the agent over time into the tumor
- dye intensity in the tumor ([4]; 30 minutes post-ICG injection, DSL 6A tumor, 500 μL of 0.42 mg/mL in water, tail vein): considerably diminished
- perfusion of the agent into the tumor ([4]; DSL 6/A (pancreatic) tumor line): slow perfusion of the agent over time into the tumor
- dye intensity in the tumor ([5]; 30 minutes post-ICG injection, CA20948 tumor): considerably diminished and almost absent
- dye fluorescence in the tumor at 45 minutes ([5]; 45 minutes post injection, CA20948 tumor): mostly cleared
- perfusion of the agent into the tumor ([5]; CA20948 (pancreatic) tumor line): only a slight but transient perfusion that was absent after only 30 minutes post injection
